Assay results from IntAct's records for PubMed 29374162.

B1: Interleukin-3 receptor subunit alpha (Homo sapiens), P26951-1 (parent)
chain: MVLLWLTLLLIALPCLLQTKEDPNPPITNLRMKAKAQQLTWDLNRNVTDIECVKDADYSMPAVNNSYCQFGAISLCEVTNYTVRVANPPFSTWILFPENSGKPWAGAENLTCWIHDVDFLSCSWAVGPGAPADVQYDLYLNVANRRQQYECLHYKTDAQGTRIGCRFDDISRLSSGSQSSHILVRGRSAAFGIPCTDKFVVFSQIEILTPPNMTAKCNKTHSFMHWKMRSHFNRKFRYELQIQKRMQPVITEQVRDRTSFQLLNPGTYTVQIRARERVYEFLSAWSTPQRFECDQEEGANTRAWRTSLLIALGTLLALVCVFVICRRYLVMQRLFPRIPHMKDPIGDSFQNDKLVVWEAGKAGLEECLVTEVQVVQKT
partner: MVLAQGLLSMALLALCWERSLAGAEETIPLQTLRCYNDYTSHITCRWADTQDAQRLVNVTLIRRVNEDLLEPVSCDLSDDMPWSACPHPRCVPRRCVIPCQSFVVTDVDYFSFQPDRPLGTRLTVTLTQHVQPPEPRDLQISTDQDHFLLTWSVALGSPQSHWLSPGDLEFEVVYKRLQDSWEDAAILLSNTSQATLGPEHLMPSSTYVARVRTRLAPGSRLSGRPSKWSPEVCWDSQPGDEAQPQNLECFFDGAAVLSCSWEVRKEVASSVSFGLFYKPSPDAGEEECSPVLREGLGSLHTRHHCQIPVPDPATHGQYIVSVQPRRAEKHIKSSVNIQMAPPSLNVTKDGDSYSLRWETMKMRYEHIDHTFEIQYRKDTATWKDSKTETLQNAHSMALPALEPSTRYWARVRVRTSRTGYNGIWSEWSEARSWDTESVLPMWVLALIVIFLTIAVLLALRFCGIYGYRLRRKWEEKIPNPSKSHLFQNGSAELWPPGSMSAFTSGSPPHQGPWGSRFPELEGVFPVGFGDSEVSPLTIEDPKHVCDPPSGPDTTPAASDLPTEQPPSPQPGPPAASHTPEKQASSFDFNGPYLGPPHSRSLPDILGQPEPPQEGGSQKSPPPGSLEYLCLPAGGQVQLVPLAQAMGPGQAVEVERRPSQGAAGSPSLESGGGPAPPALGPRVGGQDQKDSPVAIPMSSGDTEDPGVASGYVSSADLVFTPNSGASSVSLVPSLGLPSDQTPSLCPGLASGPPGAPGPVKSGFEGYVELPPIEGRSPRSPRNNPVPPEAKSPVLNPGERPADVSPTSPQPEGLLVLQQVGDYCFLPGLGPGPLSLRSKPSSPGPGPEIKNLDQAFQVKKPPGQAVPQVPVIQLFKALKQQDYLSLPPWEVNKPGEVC

Variants of: B1
Settings: with il3rb_human CSF2RB

Row | Variant | effect of a mutation on the interaction
1 | MVLLWLTLLLIALPCLLQTKEDPNPPITNLRMKAKAQQLTWDLNRNVTDIECVKDADYSMPAVNNSYCQFGAISLAEVTNYTVRVANPPFSTWILFPENSGKPWAGAENLTCWIHDVDFLSCSWAVGPGAPADVQYDLYLNVANRRQQYECLHYKTDAQGTRIGCRFDDISRLSSGSQSSHILVRGRSAAFGIPATDKFVVFSQIEILTPPNMTAKCNKTHSFMHWKMRSHFNRKFRYELQIQKRMQPVITEQVRDRTSFQLLNPGTYTVQIRARERVYEFLSAWSTPQRFECDQEEGANTRAWRTSLLIALGTLLALVCVFVICRRYLVMQRLFPRIPHMKDPIGDSFQNDKLVVWEAGKAGLEECLVTEVQVVQKT [C76A;C195A] | with no effect
2 | MVLLWLTLLLIALPCLLQTKEDPNPPITNLRMKAKAQQLTWDLNRNVTDIECVKDADYSMPAVNNSYCQFGAISLCEVTNYTVRVANPPFSTWILFPENSGKPWAGAENLTCWIHDVDFLSCSWAVGPGAPADVQYDLYLNVANRRQQYECLHYKTDAQGTRIGCRFDDISRLSSGSQSSHILVRGRSAAFGIPCTLKFVVFSQIEILTPPNMTAKCNKTHSFMHWKMRSHFNRKFRYELQIQKRMQPVITEQVRDRTSFQLLNPGTYTVQIRARERVYEFLSAWSTPQRFECDQEEGANTRAWRTSLLIALGTLLALVCVFVICRRYLVMQRLFPRIPHMKDPIGDSFQNDKLVVWEAGKAGLEECLVTEVQVVQKT [D197L] | with no effect
